Assay [1] has as its target T1, urokinase (UK) (Homo sapiens, UniProt P00749). As to the kind of experiment: Ki of inhibitors against urokinase, fractional enzyme activity assay (Empie and Laskowski) with chromogenic substrate S-2288. Details: purchased Abbott Pharmaceuticals. It counts as biochemical. As to the method:
Fractional enzyme activities for each inhibitor-UK interaction of the above discussed inhibitors were determined by the assay method of Empie and Laskowski (Empie, M. W. et al., Biochem. 21:2274-2284 (1982)), as adapted from Green and Work (Green, N. M. et al., Biochem. J. 54:347-352 (1953)). The concentration of UK used for these reactions was 35 nM. The reactions were carried out in Buffer C. The concentration of the chromogenic substrate used with UK in these assays (S-2288, KabiGen) was […], which is one tenth of the Km of the substrate for UK. Km was determined by a Michaelis-Menten analysis, using a 100-fold range of substrate concentration in Buffer C, and determined to be 4×10^-4 M. Ki values were calculated as the slope of a plot of [I]o /(1-a) vs. 1/a ("a" represents residual enzyme activity) using a variation of the formulas derived by Henderson (Pratt, C. W. et al., Biochem. 26:2855-2863 (1987)). […] These five mutants include the four detailed above(88, 89, 80, AND 91), and also a mutant with arginine at the P1 site of OM3TKY (P1-Arg). […] "ND" means not determined.
Ki values for the wild-type and mutant inhibitors versus urokinase were also determined by non-linear regression of the following equation: [formula]
The non-linear regression was done using the program Enzfitter, by Robin Leatherbarrow. […] Enzyme and inhibitor concentrations used were determined as mentioned above.

The target in assay [2] is T1, urokinase (UK). Conditions: from Turpeinen et al. (PSTI), Christensen et al. (PAI-2); serpin Ki not functionally comparable to reversible inhibitors; read-out: Ki (nM) against UK, values obtained from the literature; cited from earlier work.

Like-named read-outs stand apart in the source and are kept apart here. Where no end group is shown, it is not given here.

On to “P1-Arg: mutant with arginine at the P1 site of OM3TKY (VDCSEYPKPACTREYRPLCGSDNKTYGNKCNFCNAVVESNGTLTLSHFGKC)”, for which the Ki with urokinase (UK) [1] (non-linear regression with Enzfitter, read-out: Ki (nM), Ki VALUES OBTAINED BY NON-LINEAR REGRESSION FOR INHIBITORS AGAINST UK) was 1790 ± 415 nM. Further, the “inhibitory activity against UK” value with urokinase (UK) [1] (statement on Table 5) is “virtually no inhibitory activity”.
For the substance “PSTI: native Pancreatic Secretory Trypsin Inhibitor, a Kazal-type inhibitor from humans (DSLGREAKCYNELNGCTKIYDPVCGTDGNTYPNECVLCFENRKRQTSILIQKSGPC; ends and bridges not checked; cysteine pairing not given here; UniProt P00995 24-79, looked up) [reference compound]”, the inhibition constant (Ki) in the assay with urokinase (UK) [2] was 300 nM.

The values above are taken from patent US5550213A, “Inhibitors of urokinase plasminogen activator” (Rutgers, The State University of New Jersey, priority 1993, dated 1996).
